Earlier results in article PMC6002756.

Assays:
E-cadherin (X-dimer) ECD = E-cadherin (X-dimer) ECD (UniProt P12830)
E-cadherin ECD = E-cadherin ECD (UniProt P12830)

E-cadherin (X-dimer) ECD, sequence (P12830 155-709): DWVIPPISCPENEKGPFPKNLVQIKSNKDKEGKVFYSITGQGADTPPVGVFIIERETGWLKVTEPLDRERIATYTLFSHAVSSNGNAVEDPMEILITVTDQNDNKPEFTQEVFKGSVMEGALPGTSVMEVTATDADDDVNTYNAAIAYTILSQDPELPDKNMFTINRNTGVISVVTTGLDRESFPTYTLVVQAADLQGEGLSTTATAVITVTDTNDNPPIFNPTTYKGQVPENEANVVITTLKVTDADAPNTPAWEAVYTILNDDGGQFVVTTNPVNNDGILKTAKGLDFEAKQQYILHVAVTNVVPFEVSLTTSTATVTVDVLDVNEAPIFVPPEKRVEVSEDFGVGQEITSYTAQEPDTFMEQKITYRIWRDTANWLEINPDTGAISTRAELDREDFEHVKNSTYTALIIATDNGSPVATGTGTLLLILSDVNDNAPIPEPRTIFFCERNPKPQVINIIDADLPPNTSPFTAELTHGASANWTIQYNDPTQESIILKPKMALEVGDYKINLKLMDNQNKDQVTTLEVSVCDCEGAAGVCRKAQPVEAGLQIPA
E-cadherin ECD, sequence (P12830 155-709): as above

| Kd (E-cadherin (X-dimer) ECD) [µM] | Kd (E-cadherin ECD) [µM] | Substance |
| --- | --- | --- |
| 900 | – | E-cadherin (X-dimer) ECD (from UniProt P12830) |
| – | 100 | E-cadherin ECD (from UniProt P12830) |
